From patent US20120276102A1 (Pfizer, published 2012)
Where a chain is given by its changes, count along the chain named.

T1: human gamma (γ) common chain expressed on CHO cells (human, UniProt P31785 23-369)
T1 construct: whole, on cells; Control protein; also called human IL-2R-γ common subunit; human γ-common
T1 sequence (looked up): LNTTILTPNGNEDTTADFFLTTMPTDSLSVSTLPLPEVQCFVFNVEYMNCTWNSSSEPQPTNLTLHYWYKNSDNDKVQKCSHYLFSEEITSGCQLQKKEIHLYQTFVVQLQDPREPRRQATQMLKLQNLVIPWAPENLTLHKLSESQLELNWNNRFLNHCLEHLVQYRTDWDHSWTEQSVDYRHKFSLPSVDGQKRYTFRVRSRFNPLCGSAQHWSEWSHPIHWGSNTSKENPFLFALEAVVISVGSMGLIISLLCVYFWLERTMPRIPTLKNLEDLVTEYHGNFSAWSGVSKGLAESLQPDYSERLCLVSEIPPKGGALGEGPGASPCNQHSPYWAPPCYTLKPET

B1: parental 18A5 antibody (antibody, V domains shown)
VH: QVQLQESGPGLVKTSETLSLTCAVSGYSISSGYYWGWIRQPPGKGLEWIGSISHTGNTYYNPPLKSRVTISVDTSKNQFSLKLSSVTAADTAVYYCARGGGISRPEYWGKGTLVTVSS
VL: SSELTQDPPVSVALGQTVTLTCQGDSLRTYYASWYQQKSGQAPILLLYGKHKRPSGIPDRFSGSTSGDTASLTITGAQAEDEADYYCNSRDSSGNPHVLFGGGTQLTVL
notes: also called 18A5 IgG
B2: AbU (antibody, human IgG1, V domains shown)
VH: B1 VH with T14P, K110Q
VL: SSELTQDPAVSVALGQTVRITCQGDSLRTYYASWYQQKPGQAPVLVIYGKHKRPSGIPDRFSGSSSGNTASLTITGAQAEDEADYYCTTRSNKGNPHVLFGGGTQLTVL
notes: CDR3 graft, residue limits derived as for m29; also called VHP/VL25; VHPTM/VL25
B3: AbT (antibody, human IgG1, V domains shown)
VH: B1 VH with T14P, K110Q
VL: B2 VL with T88V, T89A
notes: CDR3 graft, residue limits derived as for m29; also called VHP/VL9; VHPTM/VL9
B4: AbQ (antibody, human IgG1, V domains shown)
VH: B1 VH with T14P, G99F, G100M, I102F, S103G, K110Q
VL: B2 VL with T88V, T89A, N92V, K93V
notes: CDR3 graft, residue limits derived as for m29; also called VH3/VL2; VH3DM/VL2
B5: AbR (antibody, human IgG1, V domains shown)
VH: B1 VH with T14P, G99F, G100M, I102F, S103G, K110Q
VL: B2 VL with T88V, N92V
notes: CDR3 graft, residue limits derived as for m29; also called VH3/VL18; VH3DM/VL18
B6: AbS (antibody, V domains shown)
VH: B1 VH with T14P, K110Q
VL: B2 VL with T88M, T89S, N92I, K93W
notes: CDR3 graft, residue limits derived as for m29; also called VHP/VL6; VHPTM/VL6
B7: AbP (antibody, human IgG1, V domains shown)
VH: B1 VH with T14P, K110Q
VL: B2 VL with T88V, T89S, N92A
notes: CDR3 graft, residue limits derived as for m29; also called VHP/VL20; VHPTM/VL20
B8: AbO (antibody, human IgG1, V domains shown)
VH: B1 VH with T14P, K110Q
VL: B2 VL with T88V, N92A
notes: CDR3 graft, residue limits derived as for m29; also called VHP/VL16; VHPTM/VL16

The binders below were run against T2, human IL-21R expressed on cells (human, UniProt Q9HBE5 20-538) (assay: cell-based or functional assay).
T2 sequence (Q9HBE5 20-538 limits assumed): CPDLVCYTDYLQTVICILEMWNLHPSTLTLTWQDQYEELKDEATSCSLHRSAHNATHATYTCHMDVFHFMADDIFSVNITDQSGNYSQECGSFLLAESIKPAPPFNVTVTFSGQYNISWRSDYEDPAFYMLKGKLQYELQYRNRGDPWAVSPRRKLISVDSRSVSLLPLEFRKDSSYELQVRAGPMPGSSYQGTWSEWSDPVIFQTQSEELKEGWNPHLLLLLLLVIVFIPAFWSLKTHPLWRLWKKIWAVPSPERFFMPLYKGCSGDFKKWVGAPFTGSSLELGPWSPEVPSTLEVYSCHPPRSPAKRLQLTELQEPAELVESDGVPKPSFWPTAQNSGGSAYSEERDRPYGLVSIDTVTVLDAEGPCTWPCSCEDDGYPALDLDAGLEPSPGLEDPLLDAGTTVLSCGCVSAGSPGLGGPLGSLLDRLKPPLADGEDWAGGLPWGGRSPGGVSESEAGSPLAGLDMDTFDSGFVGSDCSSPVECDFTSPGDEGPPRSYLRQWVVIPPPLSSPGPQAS

Neutralization of B cell proliferation IC50 [nM] | Binder
1.86 | B1
0.13 | B2
0.14 | B3
0.16 | B4
0.22 | B5
0.44 | B6

Biological target: T2, human IL-21R expressed on cells
Experiment: cell-based or functional assay
Remark: another data set of the same source

Human IL-21R-BaF3 Proliferation IC50 [nM] | Human IL-21R-TF1 Proliferation IC50 [nM] | Binder
0.75 | 3.48 | B7
0.52 | 2.91 | B8
0.73 | 3.13 | B2
0.67 | 3.26 | B3
0.68 | 4.62 | B4
0.87 | 3.94 | B5
1.53 | 5 | B6

What follows are binders tested against murine IL-21R expressed on cells (murine, UniProt Q9JHX3 20-529) (assay: cell-based or functional assay).

Murine IL-21R-BaF3 Proliferation IC50 [nM] | Binder
0.03 | B7
0.065 | B8
0.184 | B2
0.093 | B3
0.153 | B4
0.302 | B5
0.04 | B6

What follows are binders tested against T3, rat IL-21R expressed on cells (rat) (assay: cell ELISA, CHO cells).
T3 construct: whole, on cells

A450 (13 nM Ab) [A450] | Binder
1.03 | B7
1.1 | B8
0.927 | B2
0.994 | B3
1.16 | B4
1.11 | B5
1.17 | B6

Each binder was assayed against T2, human IL-21R expressed on cells (assay: cell ELISA, CHO cells).

A450 (13 nM Ab) [A450] | Binder
1.31 | B7
1.11 | B8
1.29 | B2
1.08 | B3
1.25 | B4
1.33 | B5
1.02 | B6

These binders were tested against T1, human gamma (γ) common chain expressed … (assay: cell ELISA, CHO cells).

A450 (13 nM Ab) [A450] | Binder
0.112 | B7
0.108 | B8
0.104 | B2
0.102 | B3
0.125 | B4
0.109 | B5
0.118 | B6

The binders below were run against T4, cynomolgus monkey IL-21R expressed on cells (cynomolgus monkey, UniProt G7Q0S8 41-559) (assay: cell ELISA, CHO cells).
T4 construct: whole, on cells

A450 (13 nM Ab) [A450] | Binder
1.31 | B7
1.36 | B8
1.31 | B2
1.22 | B3
1.31 | B4
1.35 | B5
1.22 | B6

The binders below were run against T2, human IL-21R expressed on cells (assay: cell-based ELISA on CHO cells transiently expressing human IL-21R; HRP anti-human IgG, A450).

EC50 (read off the curve) [nM] | Binder
~1 | B7
~0.4 | B8
~0.6 | B1
~2 | B2
~1 | B3
~0.9 | B4
~0.5 | B5

What follows are binders tested against T5, human IL-21R extracellular domain His-Flag fusion protein (human, UniProt Q9HBE5 20-232) (assay: SPR, Ab captured on anti-human IgG).
T5 construct: Biotinylated in the HTRF screen; also called hIL-21R-H/F; human IL-21R-H/F
Method: (§1) The kinetics of binding of anti-IL-21R antibodies to human and murine IL-21R-H/F was tested on a BIACORE™ surface plasmon resonance instrument. Anti-human IgG antibodies (Invitrogen Corporation) were immobilized onto a research-grade carboxy-methyl-dextran chip (CM5) using standard amine coupling. The surface was activated with EDC/NHS for 7 min at a flow of 20 μl/min. The first flow cell was used as a reference surface to correct for bulk refractive index, matrix effects, and nonspecific binding. The anti-human-Fc antibody was diluted to 20 μg/ml in 10 mM sodium acetate buffer (pH 5.0), and 2950-3405 resonance units (RU) were captured on each of the four flow cells. Remaining activated groups were blocked with 1.0 M ethanolamine-HCl (pH 8.5).
(§2) Anti-IL-21R antibodies were diluted to 0.1-0.2 μg/ml in HBS/EP buffer supplemented with 0.2% bovine serum albumin and loaded onto the BIACORE™ chip. Following a brief washing period, solutions of 0-100 nM human IL-21R-H/F or 10-500 nM murine IL-21R-H/F were injected over the chip at a flow rate of 50 μl/min. The association phase was run for 3 min for human and murine IL-21R kinetics, and the dissociation phase was monitored for 15 min for hIL-21R and for 5 min for mIL-21R, followed by two 10 μl injections and one 30 μl injection of glycine (pH 1.5), to regenerate a fully active capturing surface. All binding experiments were done at 25° C. in HBS/EP buffer, and the sample rack was kept at 15° C. Blank and buffer effects were subtracted for each sensorgram using double referencing.

T5 sequence (Q9HBE5 20-232): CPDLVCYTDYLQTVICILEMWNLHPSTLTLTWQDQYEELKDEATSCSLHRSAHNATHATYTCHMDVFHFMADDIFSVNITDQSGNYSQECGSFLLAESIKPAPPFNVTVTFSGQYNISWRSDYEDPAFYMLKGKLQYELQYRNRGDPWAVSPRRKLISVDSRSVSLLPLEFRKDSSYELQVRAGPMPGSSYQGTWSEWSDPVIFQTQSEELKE

Kd [nM] | koff [s⁻¹] | kon [M⁻¹ s⁻¹] | Binder
0.615 | 0.000119 | 194000 | B7
0.475 | 0.000114 | 241000 | B8
4.43 | 0.00108 | 243000 | B1
0.44 | 8.18e-05 | 186000 | B2
0.379 | 6.78e-05 | 179000 | B3
0.213 | 9.34e-05 | 439000 | B4
0.567 | 9.61e-05 | 170000 | B5
2.02 | 0.000291 | 144000 | B6

What follows are binders tested against T6, murine IL-21R extracellular domain His-Flag fusion protein (murine, UniProt Q9JHX3 20-237) (assay: SPR, Ab captured on anti-human IgG).
T6 construct: Biotinylated in the ELISAs; also called mIL-21R-H/F; murine IL-21R-H/F
Method: as §1, §2

Kd [nM] | koff [s⁻¹] | kon [M⁻¹ s⁻¹] | Binder
50.8 | 0.00508 | 99900 | B7
49.2 | 0.00549 | 112000 | B8
72 | 0.0153 | 212000 | B1
44.2 | 0.00434 | 98100 | B2
15.7 | 0.00331 | 211000 | B3
68.8 | 0.0207 | 301000 | B4
64.5 | 0.00493 | 76500 | B5
16.7 | 0.00332 | 199000 | B6

What follows are binders tested against T4, cynomolgus monkey IL-21R expressed on … (assay: cell-based ELISA on CHO cells transiently expressing cynomolgus monkey IL-21R; HRP anti-human IgG, A450).

EC50 (read off the curve) [nM] | Binder
~0.7 | B7
~0.5 | B8
~0.4 | B1
~0.7 | B2
~0.6 | B3
~0.7 | B4
~1 | B5
~0.5 | B6
